# Results taken from article PMC9352680, “A comprehensive thermodynamic model for RNA binding by the Saccharomyces cerevisiae Pumilio protein PUF4”.
# T1: PUF4 RNA-binding domain (Saccharomyces cerevisiae, UniProt P25339 537-888)
# T1 sequence: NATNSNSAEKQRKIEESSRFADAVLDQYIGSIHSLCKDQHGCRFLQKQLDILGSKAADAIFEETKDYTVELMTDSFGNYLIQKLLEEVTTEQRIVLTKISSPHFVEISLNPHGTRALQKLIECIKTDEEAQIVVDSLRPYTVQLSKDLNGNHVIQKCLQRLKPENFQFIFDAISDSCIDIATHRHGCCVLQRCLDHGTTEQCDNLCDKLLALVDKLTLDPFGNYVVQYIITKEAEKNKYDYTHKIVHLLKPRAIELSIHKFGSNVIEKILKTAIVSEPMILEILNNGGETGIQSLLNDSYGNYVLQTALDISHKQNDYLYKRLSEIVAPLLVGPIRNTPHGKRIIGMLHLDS
# Molecular target: T1, PUF4 RNA-binding domain
# Test: Mg; RNA-MaP; 20 mM Na-HEPES pH 7.4, 30 mM KOAc, 0.75 mM MgCl2, 0.1% Tween-20, 5% glycerol, 0.1 mg/mL BSA, 2 mM DTT; 25 C; 0.0125-409.6 nM protein
# Details: tags: N-His6-TEV cleaved; C-SNAP kept, Cy3B-labelled; label: tethered on chip by stalled RNA polymerase
row,Binder,Kd
1,UCUCUUUGUAGUCCAUCUCUU (ssRNA) [Ic_S1_P4E.1_K4.1_C4.1_H4.1_A4.1_[T5G]_[A6T]_[T7C]_F4.1_[T8C]_T4.1],1510 nM
2,UCUCUUUGUAGCAAAUCUCUU (ssRNA) [Ic_S1_P4E.1_K4.1_C4.1_H4.1_A4.1_[T5G]_[A6C]_[T7A]_F4.1_[T8A]_T4.1],833 nM
3,UCUCUUUGUAGCCUAUCUCUU (ssRNA) [Ic_S1_P4E.1_K4.1_C4.1_H4.1_A4.1_[T5G]_[A6C]_[T7C]_F4.1_T4.1],34.3 nM
4,UCUCUUUGUAGCUGCUCUCUU (ssRNA) [Ic_S1_P4E.1_K4.1_C4.1_H4.1_A4.1_[T5G]_[A6C]_F4.1_[T8G]_[A9C]_T4.1],2070 nM
5,UCUCUUUGUAGUGUCUCUCUU (ssRNA) [Ic_S1_P4E.1_K4.1_C4.1_H4.1_A4.1_[T5G]_[A6T]_[T7G]_F4.1_[A9C]_T4.1],1370 nM
6,UCUCUUUGUAUAAUUCUCUU (ssRNA) [Ib_S1_P3E.1_K3.1_C3.1_H3.1_A3.1_F3.1_[T7A]_[A8T]_T3.1],9.97 nM
7,UCUCUUUGUACGGCAUCUCUU (ssRNA) [Ic_S1_P4E.1_K4.1_C4.1_H4.1_A4.1_[T5C]_[A6G]_[T7G]_F4.1_[T8C]_T4.1],625 nM
8,UCUCUUUGUAGUAUCUCUCUU (ssRNA) [Ic_S1_P4E.1_K4.1_C4.1_H4.1_A4.1_[T5G]_[A6T]_[T7A]_F4.1_[A9C]_T4.1],590 nM
9,UCUCUUUGUAGCACGUCUCUU (ssRNA) [Ic_S1_P4E.1_K4.1_C4.1_H4.1_A4.1_[T5G]_[A6C]_[T7A]_F4.1_[T8C]_[A9G]_T4.1],> 2300 nM
10,UCUCUUUGUAGUUCCUCUCUU (ssRNA) [Ic_S1_P4E.1_K4.1_C4.1_H4.1_A4.1_[T5G]_[A6T]_F4.1_[T8C]_[A9C]_T4.1],1260 nM
11,UCUCUUUGUAGUUUCUCUCUU (ssRNA) [Ic_S1_P4E.1_K4.1_C4.1_H4.1_A4.1_[T5G]_[A6T]_F4.1_[A9C]_T4.1],365 nM
12,UCUCUUUGUAUAACUCUCUU (ssRNA) [Ib_S1_P3E.1_K3.1_C3.1_H3.1_A3.1_F3.1_[T7A]_[A8C]_T3.1],47 nM
13,UCUCUUUGUAGCACUUCUCUU (ssRNA) [Ic_S1_P4E.1_K4.1_C4.1_H4.1_A4.1_[T5G]_[A6C]_[T7A]_F4.1_[T8C]_[A9T]_T4.1],949 nM
14,UCUCUUUGUAGCUUCUCUCUU (ssRNA) [Ic_S1_P4E.1_K4.1_C4.1_H4.1_A4.1_[T5G]_[A6C]_F4.1_[A9C]_T4.1],612 nM
15,UCUCUUUGUAGCAUCUCUCUU (ssRNA) [Ic_S1_P4E.1_K4.1_C4.1_H4.1_A4.1_[T5G]_[A6C]_[T7A]_F4.1_[A9C]_T4.1],398 nM
16,UCUCUUUGUAGUAUAUCUCUU (ssRNA) [Ic_S1_P4E.1_K4.1_C4.1_H4.1_A4.1_[T5G]_[A6T]_[T7A]_F4.1_T4.1],11.2 nM

row,Binder,Kd
1,UCUCUUUGUACGGUGUCUCUU (ssRNA) [Ic_S1_P4E.1_K4.1_C4.1_H4.1_A4.1_[T5C]_[A6G]_[T7G]_F4.1_[A9G]_T4.1],503 nM
2,UCUCUUUGUACGGCCUCUCUU (ssRNA) [Ic_S1_P4E.1_K4.1_C4.1_H4.1_A4.1_[T5C]_[A6G]_[T7G]_F4.1_[T8C]_[A9C]_T4.1],> 2300 nM
3,UCUCUUUGUACGGUUUCUCUU (ssRNA) [Ic_S1_P4E.1_K4.1_C4.1_H4.1_A4.1_[T5C]_[A6G]_[T7G]_F4.1_[A9T]_T4.1],360 nM
4,UCUCUUUGUAGCCAUUCUCUU (ssRNA) [Ic_S1_P4E.1_K4.1_C4.1_H4.1_A4.1_[T5G]_[A6C]_[T7C]_F4.1_[T8A]_[A9T]_T4.1],1890 nM
5,UCUCUUUGUAAAUAUCUCUU (ssRNA) [Ic_S1_P3E.1_K3.1_C3.1_H3.1_A3.1_[T5A]_F3.1_T3.1],28 nM
6,UCUCUUUGUAGUGCUUCUCUU (ssRNA) [Ic_S1_P4E.1_K4.1_C4.1_H4.1_A4.1_[T5G]_[A6T]_[T7G]_F4.1_[T8C]_[A9T]_T4.1],> 2300 nM
7,UCUCUUUGUAGUCUCUCUCUU (ssRNA) [Ic_S1_P4E.1_K4.1_C4.1_H4.1_A4.1_[T5G]_[A6T]_[T7C]_F4.1_[A9C]_T4.1],658 nM
8,UCUCUUUGUAGUACAUCUCUU (ssRNA) [Ic_S1_P4E.1_K4.1_C4.1_H4.1_A4.1_[T5G]_[A6T]_[T7A]_F4.1_[T8C]_T4.1],1720 nM
9,UCUCUUUGUAGCAGCUCUCUU (ssRNA) [Ic_S1_P4E.1_K4.1_C4.1_H4.1_A4.1_[T5G]_[A6C]_[T7A]_F4.1_[T8G]_[A9C]_T4.1],> 2300 nM
10,UCUCUUUGUAGUCGUUCUCUU (ssRNA) [Ic_S1_P4E.1_K4.1_C4.1_H4.1_A4.1_[T5G]_[A6T]_[T7C]_F4.1_[T8G]_[A9T]_T4.1],1600 nM
11,UCUCUUUGUAGCACAUCUCUU (ssRNA) [Ic_S1_P4E.1_K4.1_C4.1_H4.1_A4.1_[T5G]_[A6C]_[T7A]_F4.1_[T8C]_T4.1],1440 nM
12,UCUCUUUGUAGUGCCUCUCUU (ssRNA) [Ic_S1_P4E.1_K4.1_C4.1_H4.1_A4.1_[T5G]_[A6T]_[T7G]_F4.1_[T8C]_[A9C]_T4.1],> 2300 nM
13,UCUCUUUGUAGUAUGUCUCUU (ssRNA) [Ic_S1_P4E.1_K4.1_C4.1_H4.1_A4.1_[T5G]_[A6T]_[T7A]_F4.1_[A9G]_T4.1],278 nM
14,UCUCUUUGUAGUACUUCUCUU (ssRNA) [Ic_S1_P4E.1_K4.1_C4.1_H4.1_A4.1_[T5G]_[A6T]_[T7A]_F4.1_[T8C]_[A9T]_T4.1],760 nM
15,UCUCUUUGUAUACUUCUCUU (ssRNA) [Ic_S1_P3E.1_K3.1_C3.1_H3.1_A3.1_F3.1_[T7C]_[A8T]_T3.1],5.59 nM
16,UCUCUUUGUAUAAGUCUCUU (ssRNA) [Ib_S1_P3E.1_K3.1_C3.1_H3.1_A3.1_F3.1_[T7A]_[A8G]_T3.1],502 nM
